This note sets out measurements from paper PMC11300487, “C-phycocyanin reinforces autophagy to block pulmonary fibrogenesis by inhibiting lncIAPF biogenesis” (Archives of Pharmacal Research, 2024).

The target of this test is T1, C-phycocyanin (Spirulina platensis, UniProt P72509 1-162; P72508 1-172).
T1 construct: C-phycocyanin alpha subunit, Spirulina platensis; C-phycocyanin beta subunit, Spirulina platensis; the source organism is told in the introduction only; also called C-PC; source: bought: Aladdin, Shanghai
In words: SPR; equilibrium dissociation constant; who was immobilised and the conditions not given. The note with it: both partners purified.

B1: activating transcription factor 3 (natural protein, UniProt P18847 1-181, looked up)
chain: MMLQHPGQVSASEVSASAIVPCLSPPGSLVFEDFANLTPFVKEELRFAIQNKHLCHRMSSALESVTVSDRPLGVSITKAEVAPEEDERKKRRRERNKIAAAKCRNKKKEKTECLQKESEKLESVNAELKAQIEELKNEKQHLIYMLNLHRPTCIVRAQNGRTPEDERNLFIQQIKEGTLQS
notes: ATF3 as used in the SPR experiment; the ATF3 protein used there is not described; also called ATF3
Molecule B1 had a Kd of 683 nM.
